Test results: patent publication US6723833
Read-outs that look alike come from different tables or passages of the source.

B1: MaE11 (antibody, mouse IgG1, V domains shown)
VH: DVQLQESGPGLVKPSQSLSLACSVTGYSITSGYSWNWIRQFPGNKLEWMGSITYDGSSNYNPSLKNRISVTRDTSQNQFFLKLNSATAEDTATYYCARGSHYFGHWHFAVWGAGTTVTVSS
VL: DIQLTQSPASLAVSLGQRATISCKASQSVDYDGDSYMNWYQQKPGQPPILLIYAASYLGSEIPARFSGSGSGTDFTLNIHPVEEEDAATFYCQQSHEDPYTFGAGTKLEIK

What was measured:
[1] = target: human IgE bound to FcεRI (IgE-loaded FcεRI α-chain on CHO 3D10 cells) (human) (UniProt P01854); experiment: FACS on IgE-loaded CHO 3D10 cells (FIG. 4); isotype control
[2] = target: human IgE bound to FcεRI (IgE-loaded FcεRI α-chain on CHO 3D10 cells) (human) (UniProt P01854); experiment: FACS on IgE-loaded CHO 3D10 cells (FIG. 4)
[3] = target: human IgE (affinity purified from U266B1 myeloma culture supernatant) (human) (UniProt P01854); experiment: soluble receptor assay: inhibition of biotin-IgE binding to plate-coated FcεRI α-chain IgG chimera
[4] = target: human IgE (affinity purified from U266B1 myeloma culture supernatant) (human) (UniProt P01854); experiment: as above; remark: listed apart in the source
[5] = target: human IgE bound to FcεRI (IgE-loaded FcεRI α-chain on CHO 3D10 cells) (human) (UniProt P01854); experiment: cell-based or functional assay
[6] = target: membrane IgE on U266B1 cells (human) (UniProt P01854); experiment: FACS on U266B1 cells (membrane IgE+)
[7] = target: human IgE (affinity purified from U266B1 myeloma culture supernatant) (human) (UniProt P01854); experiment: equilibrium binding of 125I-IgE, Scatchard analysis

Sequence of human IgE (affinity purified from U266B1 myeloma culture supernatant) (human) (P01854 whole entry, form in doubt, one chain of several): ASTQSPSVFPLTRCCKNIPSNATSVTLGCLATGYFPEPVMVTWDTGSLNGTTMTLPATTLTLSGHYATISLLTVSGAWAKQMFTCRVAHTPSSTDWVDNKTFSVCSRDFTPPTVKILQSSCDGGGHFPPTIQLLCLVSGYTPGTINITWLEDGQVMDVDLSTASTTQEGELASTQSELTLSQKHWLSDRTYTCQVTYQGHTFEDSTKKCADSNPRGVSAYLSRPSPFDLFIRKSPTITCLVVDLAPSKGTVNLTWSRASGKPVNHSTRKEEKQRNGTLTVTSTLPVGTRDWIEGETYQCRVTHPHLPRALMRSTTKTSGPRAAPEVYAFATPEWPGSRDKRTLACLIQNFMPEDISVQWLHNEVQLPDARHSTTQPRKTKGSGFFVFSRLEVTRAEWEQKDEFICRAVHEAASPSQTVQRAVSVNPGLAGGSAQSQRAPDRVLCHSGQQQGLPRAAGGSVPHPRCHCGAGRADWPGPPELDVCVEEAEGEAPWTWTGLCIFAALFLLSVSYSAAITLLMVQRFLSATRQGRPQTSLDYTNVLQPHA
Sequence of human IgE bound to FcεRI (IgE-loaded FcεRI α-chain on CHO 3D10 cells) (human) (P01854 whole entry, chain 1 of 2): as the sequence (P01854 whole entry, form in doubt, one chain of several) above
Sequence of human IgE bound to FcεRI (IgE-loaded FcεRI α-chain on CHO 3D10 cells) (human) (P12319 26-257, chain 2 of 2, further chain): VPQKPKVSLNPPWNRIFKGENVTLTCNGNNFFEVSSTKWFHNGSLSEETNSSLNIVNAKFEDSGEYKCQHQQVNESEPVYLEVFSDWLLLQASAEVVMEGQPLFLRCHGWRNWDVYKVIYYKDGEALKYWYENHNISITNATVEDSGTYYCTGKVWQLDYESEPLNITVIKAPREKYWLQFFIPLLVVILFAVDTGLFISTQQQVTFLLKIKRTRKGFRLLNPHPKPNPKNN
Sequence of membrane IgE on U266B1 cells (human) (P01854 whole entry, one chain of several): as the sequence (P01854 whole entry, form in doubt, one chain of several) above

Molecule | nonspecific background binding [1] | mean channel fluorescence at 0.1 µg/ml (mean channel fluorescence) [2] | IC50 [3] | ratio F(ab)-X/F(ab)-2 [3] | ratio F(ab)-X/MaE11 [3] | IC50 [4] | ratio Variant X/IgG1-2 [4] | ratio Variant X/MaE11 [4] | PBL histamine release (EC50), IgE-loaded peripheral blood basophils [5] | EC50 [6] | Kd [7]
MOPC21 (antibody) | 10% | 7.3 | – | – | – | – | – | – | – | – | –
B1 | – | 6.4 | 0.179 µg/mL | 0.03 | 1 | 0.449 µg/mL | 0.06 | 1 | > 100 µg/mL | 0.15 µg/mL | 30 nM
